How the values were obtained:
[1] = molecular target: T1, SARS-CoV-2 Alpha variant RBD蛋白 (SARS-CoV-2, UniProt P0DTC2 319-541); assay: SPR (Biacore 8K)
T1 construct: domain: RBD

[2] = molecular target: SARS-CoV-2 Beta variant RBD蛋白 (Beta型新型冠状病毒刺突蛋白受体结合域段RBD蛋白) (SARS-CoV-2, UniProt P0DTC2 319-541); assay: SPR (Biacore 8K)
[3] = molecular target: SARS-CoV-2 Omicron variant RBD蛋白 (Omicron新型冠状病毒RBD蛋白) (SARS-CoV-2, UniProt P0DTC2 319-541); assay: SPR (Biacore 8K)
[4] = molecular target: T2, SARS-CoV-2 Delta variant RBD蛋白 (SARS-CoV-2, UniProt P0DTC2 319-541); assay: SPR (Biacore 8K)
T2 construct: domain: RBD

Omicron BA.2-RBD = molecular target: T3, Omicron BA.2-RBD (SARS-CoV-2, UniProt P0DTC2 319-541); assay: lateral-flow sandwich, gold-labelled IMCAS-364 as detector (Table 4)
T3 construct: domain: RBD

Omicron BA.1-RBD = molecular target: T4, Omicron BA.1-RBD (SARS-CoV-2, UniProt P0DTC2 319-541); assay: lateral-flow sandwich, gold-labelled IMCAS-364 as detector (Table 5)
T4 construct: domain: RBD

B1: IMCAS-364抗体 (全抗IgG1) (antibody, V domains shown)
VH: QVQLQESGGGVVQPGRSLRLSCAASGFTFSRYGMHWVRQAPGKGLEWVAVIWYDGSNKYYADSVKGRFTISRDNSKNTLYLQMNSLRADDTAVYYCAKQEGTYCSGGSCYSGLDYWGQGTLVTVSS
VL: not shown
notes: also called 金标抗体 (胶体金标记)
- Kd [1]: 1.06 nM
- Kd [2]: 1.07 nM
- Kd [3]: 2.19 nM

B2: IMCAS-123抗体 (全抗IgG1) (antibody, V domains shown)
VH: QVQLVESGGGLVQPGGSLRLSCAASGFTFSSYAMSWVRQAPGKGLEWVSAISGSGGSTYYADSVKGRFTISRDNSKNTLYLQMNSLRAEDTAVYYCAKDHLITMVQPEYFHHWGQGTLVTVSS
VL: DIQMTQSPSSVSASVGDSVTITCRASQGISRWLAWYQQRPGKAPKLLIYAAGNLETGVPSRFSGSGSGTDFTLTISDLQAEDFATYYCQQADSFPLTFGGGTKVDIKR
notes: also called T1线抗体
- Kd [1]: 0.15 nM
- Kd [2]: 0.32 nM
- Kd [4]: 0.48 nM
- Kd [3]: 1.41 nM

B3: IMCAS-72抗体 (全抗IgG1) (antibody, V domains shown)
VH: QVQLVESGGGLVQPGGSLRLSCAASGFTFSSYGMHWVRQAPGKGLEWVAVISYDGSDKYYADSVKGRFTISRDNSKNTLYLQMNSLRAEDTAVYYCARDRDRFGDQGGWFDPWGQGTLVTVSS
VL: not shown
notes: also called T2线抗体
- Kd [4]: 0.62 nM
- binding result (Omicron BA.2-RBD): no binding (tested: IMCAS-72 0.8mg/mL on the T2 line)
- binding result (Omicron BA.1-RBD): no binding (tested: IMCAS-72 2mg/mL on the T2 line)

— patent publication CN114395035A (JIANGSU MICKEE MEDICAL TECH CO LTD; INST OF MICROBIOLOGY OF …, dated 2022)
